According to patent US20160264681A1 (ACCELERON PHARMA, published 2016):
Like-named read-outs stand apart in the source and are kept apart here.

B1: ActRIIb-hFc (R64, 23-131) (Fc fusion)
chain: EAETRECIYYNANWELERTNQSGLERCEGEQDKRLHCYASWRNSSGTIELVKKGCWLDDFNCYDRQECVATEENPQVYFCCCEGNFCNERFTHLPEAGGPEVTYEPPPTGGGTHTCPPCPAPELLGGPSVFLFPPKPKDTLMISRTPEVTCVVVDVSHEDPEVKFNWYVDGVEVHNAKTKPREEQYNSTYRVVSVLTVLHQDWLNGKEYKCKVSNKALPVPIEKTISKAKGQPREPQVYTLPPSREEMTKNQVSLTCLVKGFYPSDIAVEWESNGQPENNYKTTPPVLDSDGSFFLYSKLTVDKSRWQQGNVFSCSVMHEALHNHYTQKSLSLSPGK
B2: ActRIIb-hFc (R64, 21-131) (Fc fusion)
chain: RGEAETRECIYYNANWELERTNQSGLERCEGEQDKRLHCYASWRNSSGTIELVKKGCWLDDFNCYDRQECVATEENPQVYFCCCEGNFCNERFTHLPEAGGPEVTYEPPPTGGGTHTCPPCPAPELLGGPSVFLFPPKPKDTLMISRTPEVTCVVVDVSHEDPEVKFNWYVDGVEVHNAKTKPREEQYNSTYRVVSVLTVLHQDWLNGKEYKCKVSNKALPVPIEKTISKAKGQPREPQVYTLPPSREEMTKNQVSLTCLVKGFYPSDIAVEWESNGQPENNYKTTPPVLDSDGSFFLYSKLTVDKSRWQQGNVFSCSVMHEALHNHYTQKSLSLSPGK
B3: ActRIIb-hFc (R64, 24-131) (Fc fusion)
chain: AETRECIYYNANWELERTNQSGLERCEGEQDKRLHCYASWRNSSGTIELVKKGCWLDDFNCYDRQECVATEENPQVYFCCCEGNFCNERFTHLPEAGGPEVTYEPPPTGGGTHTCPPCPAPELLGGPSVFLFPPKPKDTLMISRTPEVTCVVVDVSHEDPEVKFNWYVDGVEVHNAKTKPREEQYNSTYRVVSVLTVLHQDWLNGKEYKCKVSNKALPVPIEKTISKAKGQPREPQVYTLPPSREEMTKNQVSLTCLVKGFYPSDIAVEWESNGQPENNYKTTPPVLDSDGSFFLYSKLTVDKSRWQQGNVFSCSVMHEALHNHYTQKSLSLSPGK
B4: ActRIIb-hFc (R64, 20-131) (Fc fusion)
chain: GRGEAETRECIYYNANWELERTNQSGLERCEGEQDKRLHCYASWRNSSGTIELVKKGCWLDDFNCYDRQECVATEENPQVYFCCCEGNFCNERFTHLPEAGGPEVTYEPPPTGGGTHTCPPCPAPELLGGPSVFLFPPKPKDTLMISRTPEVTCVVVDVSHEDPEVKFNWYVDGVEVHNAKTKPREEQYNSTYRVVSVLTVLHQDWLNGKEYKCKVSNKALPVPIEKTISKAKGQPREPQVYTLPPSREEMTKNQVSLTCLVKGFYPSDIAVEWESNGQPENNYKTTPPVLDSDGSFFLYSKLTVDKSRWQQGNVFSCSVMHEALHNHYTQKSLSLSPGK
B5: ActRIIB(20-134)-hFc (Fc fusion)
chain: GRGEAETRECIYYNANWELERTNQSGLERCEGEQDKRLHCYASWRNSSGTIELVKKGCWLDDFNCYDRQECVATEENPQVYFCCCEGNFCNERFTHLPEAGGPEVTYEPPPTAPTGGGTHTCPPCPAPELLGGPSVFLFPPKPKDTLMISRTPEVTCVVVDVSHEDPEVKFNWYVDGVEVHNAKTKPREEQYNSTYRVVSVLTVLHQDWLNGKEYKCKVSNKALPVPIEKTISKAKGQPREPQVYTLPPSREEMTKNQVSLTCLVKGFYPSDIAVEWESNGQPENNYKTTPPVLDSDGSFFLYSKLTVDKSRWQQGNVFSCSVMHEALHNHYTQKSLSLSPGK
B6: ActRIIb-hFc (R64, 20-128) (Fc fusion)
chain: GRGEAETRECIYYNANWELERTNQSGLERCEGEQDKRLHCYASWRNSSGTIELVKKGCWLDDFNCYDRQECVATEENPQVYFCCCEGNFCNERFTHLPEAGGPEVTYEPGGGTHTCPPCPAPELLGGPSVFLFPPKPKDTLMISRTPEVTCVVVDVSHEDPEVKFNWYVDGVEVHNAKTKPREEQYNSTYRVVSVLTVLHQDWLNGKEYKCKVSNKALPVPIEKTISKAKGQPREPQVYTLPPSREEMTKNQVSLTCLVKGFYPSDIAVEWESNGQPENNYKTTPPVLDSDGSFFLYSKLTVDKSRWQQGNVFSCSVMHEALHNHYTQKSLSLSPGK
B7: ActRIIb-hFc (R64, 22-131) (Fc fusion)
chain: GEAETRECIYYNANWELERTNQSGLERCEGEQDKRLHCYASWRNSSGTIELVKKGCWLDDFNCYDRQECVATEENPQVYFCCCEGNFCNERFTHLPEAGGPEVTYEPPPTGGGTHTCPPCPAPELLGGPSVFLFPPKPKDTLMISRTPEVTCVVVDVSHEDPEVKFNWYVDGVEVHNAKTKPREEQYNSTYRVVSVLTVLHQDWLNGKEYKCKVSNKALPVPIEKTISKAKGQPREPQVYTLPPSREEMTKNQVSLTCLVKGFYPSDIAVEWESNGQPENNYKTTPPVLDSDGSFFLYSKLTVDKSRWQQGNVFSCSVMHEALHNHYTQKSLSLSPGK
B8: ActRIIb-hFc (R64, 20-132) (Fc fusion)
chain: GRGEAETRECIYYNANWELERTNQSGLERCEGEQDKRLHCYASWRNSSGTIELVKKGCWLDDFNCYDRQECVATEENPQVYFCCCEGNFCNERFTHLPEAGGPEVTYEPPPTAGGGTHTCPPCPAPELLGGPSVFLFPPKPKDTLMISRTPEVTCVVVDVSHEDPEVKFNWYVDGVEVHNAKTKPREEQYNSTYRVVSVLTVLHQDWLNGKEYKCKVSNKALPVPIEKTISKAKGQPREPQVYTLPPSREEMTKNQVSLTCLVKGFYPSDIAVEWESNGQPENNYKTTPPVLDSDGSFFLYSKLTVDKSRWQQGNVFSCSVMHEALHNHYTQKSLSLSPGK

What was measured:
Experiment in all cases: cell-based or functional assay
Activin A [1] = biological target: T1, Activin A (UniProt P08476 311-426)
T1 sequence (looked up): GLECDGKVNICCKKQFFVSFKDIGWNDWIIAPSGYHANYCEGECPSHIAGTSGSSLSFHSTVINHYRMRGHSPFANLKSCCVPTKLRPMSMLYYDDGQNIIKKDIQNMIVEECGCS

GDF11 [2] = biological target: T2, GDF11 (UniProt O95390 299-407)
T2 sequence (looked up): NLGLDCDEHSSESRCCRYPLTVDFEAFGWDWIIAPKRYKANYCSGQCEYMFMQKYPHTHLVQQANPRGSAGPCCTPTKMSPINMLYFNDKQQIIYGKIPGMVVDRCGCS

Activin A [3] = biological target: T1, Activin A; remark: listed apart in the source
GDF11 [4] = biological target: T2, GDF11; remark: listed apart in the source

Binder	IC50 (ng/mL), reporter gene assay, conditioned media (Activin A [1]) [ng/mL]	IC50 (ng/mL), reporter gene assay, conditioned media (GDF11 [2]) [ng/mL]	IC50 (ng/mL), reporter gene assay, conditioned media (Activin A [3]) [ng/mL]	IC50 (ng/mL), reporter gene assay, conditioned media (GDF11 [4]) [ng/mL]
B1	43	60		
B2	325	121		
B3	105	69		
B4	201	183	44	120
B5			2	45
B6			158	130
B7	100	71		
B8			32	87
